The nature of assay [1]: Ligand binding affinity of proteins for selected ligands (FIG. 5): retinoic acid. The note with it: mutant relative to native ERABP; see FIG. 5.
The nature of assay [2]: Ligand binding affinity of proteins for selected ligands (FIG. 5): retinol. The note with it: see FIG. 5.
A short description of assay [3]: Ligand binding affinity of proteins for selected ligands (FIG. 5): retinal. The note with it: see FIG. 5.

B1: ERABP (Arg 80 and Glu63 to isoleucine): Epididymal Retinoic acid Binding Protein with Arg 80 and Glu63 mutated to isoleucine (protein, UniProt P06911 1-188, looked up, variant E63I R80I)
chain: MENIMPFALLGLCVGLAAGTEGAVVKDFDISKFLGFWYEIAFASKMGTPGLAHKEEKMGAMVVELKENLLALTTTYYSEDHCVLIKVTATEGDGPAKFQVTILSGKKEVVVEATDYLTYAIIDITSLVAGAVHRTMKLYSRSLDDNGEALYNFRKITSDHGFSETDLYILKHDLTCVKVLQSAAESRP
Regarding B1, in assay [1], the “affinity for retinoic acid” value was “reduced affinity”. Besides, in assay [2], the binding of retinol entry was “bind”. The binding of retinal entry in assay [3] was “bind”.

The values are drawn from patent US20040147437A1, “Calycins” (priority 2000, published 2004).
